Reference: paper PMC12266039

Experiments:
[1] = target: human FcRn receptor (neonatal Fc receptor) (human) (UniProt P55899); assay: SPR
[2] = target: BG505 DS-SOSIP.664 (gp140 trimer) (HIV (BG505)) (UniProt Q2N0S6); assay: SPR

griffithsin (GRFT), sequence (P84801 whole entry): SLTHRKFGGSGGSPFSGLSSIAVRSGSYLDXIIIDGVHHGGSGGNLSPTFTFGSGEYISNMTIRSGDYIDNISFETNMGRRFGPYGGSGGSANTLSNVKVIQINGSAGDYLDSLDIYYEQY

Substance | Kd [1] | koff [2] | kon [2]
VRC01 (standard anti-HIV broadly neutralizing antibody) | 78.2 nM |  | 
griffithsin (GRFT) (from UniProt P84801 1-121) (natural protein) |  | 0.0136 s⁻¹ | 1.42e+07 M⁻¹ s⁻¹
